# Assays:
# RSV long strain = test: RSV-infected A-549 cells, plaque assay; conditions: MOI 1, 100 μg antibody per well
# [1] = test system: orthotopic MDA-MB-231 breast cancer; test: 3G4 tumor treatment and histology; assay type: in vivo, mice
# Method: FIG. 17A and FIG. 17B. […] At the conclusion of treatment, animals were perfused and tumors were snap-frozen, cut and stained with an antibody to murine CD31 (rat, anti-mouse CD31), a pan-endothelial marker of murine vasculature (FIG. 17A), or embedded in paraffin and strained with H&E (FIG. 17B).
# In the orthotopic model, 1×10^7 cells in 0.1 ml DMEM are typically injected into MFP of anesthetized mice. Mice are anesthetized with 0.075 ml of mouse cocktail injected IP. The mouse cocktail is 5 ml Ketamine (100 mg/ml); 2.5 ml Xylazine (20 mg/ml); 1 ml Acepromazine (10 mg/ml); 11 ml sterile water. Dosage is 0.1 ml per 20-30 grams body weight via the IP route for a duration of 30 minutes.
# Once the mouse is anesthetized, as measured by no response to toe/foot pinch, the mouse is laid on its left side and wiped with 70% ethanol just behind the head and around the right forearm/back area. […] 0.1 ml of cells are injected into the fat pad using a 1 ml syringe and a 27-gauge needle, producing a bleb in the fat pad. The incision is closed using a 9 mm sterile wound clip. The mouse is returned to its cage and observed until it has wakened from anesthesia and is mobile. Post-operative health status is determined, and if any signs of distress are observed, the animal is given acetaminophen (0.24 mg/ml)+codeine (0.024 mg/ml) in the drinking water. The wound clip is removed after 1 week. This method is used so that the cells are accurately placed into the selected site and not into the subcutaneous region. Tumors will be approximately 200 μl in volume (L×W×W) in 14-15 days and the take rate is essentially 100%.
# (§1) Treatment was repeated 3 times a week. Animals were monitored twice a week for tumor measurements.
# [2] = mouse, in vivo, iv
# [3] = Binding to heparin, heparan sulfate and DNA
# [4] = test system: H2O2-treated HL-60 tumor cells; test: Macrophage phagocytosis of PS-positive tumor cells; conditions: 5 μg/ml, vs isotype-matched control antibody
# bEnd.3 cells = test: Growth of bEnd.3 cells in vitro; assay type: cell-based; conditions: 20 μg to 40 μg total IgG per well, 48 and 96 hours
# Method: 20% DMEM alone (control) or 20% DMEM containing the antibodies (20 μg to 40 μg total IgG per well) was added 4 hours after seeding. Each clone was tested on two separate plates in triplicates. Cells were detached 48 and 96 hours later, the cell count was determined in each well and the average cell number per treatment was calculated.
# human CMV AD169 [5] = test: CMV viral load by plaque assay; assay type: cell-based; conditions: for decrease in viral titer: high m.o.i.
# Toxicity of 3G4 in mice = assay type: in vivo, BALB/c mice
# Excerpt: The following parameters were specifically examined.
# There were no physical signs of toxicity, e.g. hair loss, loss of appetite, etc. […] Marrows in the treated animals were essentially completely cellular (as would be expected for a young mammal). Erythroid, granulocytic, lymphocytic progenitors and megakaryocytes were present in normal numbers.
# Mice retain normal physical signs, bone marrow cellularity, white blood cell counts, histology and coagulation functions.
# mCMV RVG102 = test: Survival of mCMV-infected mice; assay type: in vivo, Balb/C mice; conditions: 1 mg/mouse i.p. day 1, 0.5 mg/mouse every four days until day 26; past 90 days
# [6] = ELISA binding to anionic phospholipids in 5 mM EDTA (Ca2+ requirement)
# Method: The specificity of the 9D2 antibody binding was validated by using control rat IgM of irrelevant specificity (Pharmingen, San Diego, Calif.). The specificity of annexin V binding to phospholipids, which is Ca^2+-dependent, was determined by diluting the reagent in the DPBS containing 5 mM EDTA. Additional negative controls consisted of washing the plates with the binding buffer containing 0.2% of a detergent Tween 20. This treatment extracts lipids, thus removing the phospholipid that was absorbed to plastic. Neither 9D2 antibody nor annexin V bound to detergent-washed plates.
# human CMV AD169 [7] = test: CMV-GFP infected HHF-R2 cells, fluorescent microscopy; conditions: MOI 0.01
# [8] = test system: Tissue Factor (TF)-induced coagulation
# [9] = test system: L540 human Hodgkin's lymphoma; test: 3G4 tumor treatment; assay type: in vivo, mice; conditions: subcutaneous L540 xenografts
# Method: In the subcutaneous model, mice are typically injected with 1×10^7 cells in 0.2 ml. Mice are not anesthetized, but are restrained using a steady grip of mouse skin exposing the right flank. A 1 ml syringe with a 23 gauge needle is used to inject 1×10^7 cells in 200 μl, just under the skin of the mice and a bleb will be seen. It is not unusual to observe a small amount of fluid leak from the injection site. A twisting motion may be used when withdrawing the needle from the subcutaneous injection to reduce this leakage. Tumor volume is measured by L×W×H.
# as §1
# various tumors = test: 3G4 in syngeneic and xenogeneic tumor models, overall
# [10] = Liposome competition for 3G4 binding to immobilized PS; conditions: 3G4 0.1 μg/ml
# Method: Liposomes were prepared from solutions of 5 mg of a single phospholipid in chloroform. The solutions were dried under nitrogen to form a thin layer in a round-bottomed glass flask. Ten ml of Tris buffer (0.1 M, pH 7.4) were then added and the flask was sonicated five times for 2 min. […] The mixture was added to PS-coated plates (after standard blocking), incubated for 1 hour, washed and the secondary antibody added. After 1 hour, the plates were washed and developed for 5 minutes using OPD.
# Pichinde virus = assay type: cell-based
# [11] = m.o.i. 0.01 pfu/cell, 100 μg/ml
# [12] = 100 μg IP three times a week for 2 to 3 weeks
molecule,measurement,setting,value
"3G4: mouse IgG3 kappa monoclonal antibody binding PS and other anionic phospholipids; hybridoma ATCC PTA 4545 (antibody, V domains shown) VH: EVQLQQSGPELEKPGASVKLSCKASGYSFTGYNMNWVKQSHGKSLEWIGHIDPYYGDTSYNQKFRGKATLTVDKSSSTAYMQLKSLTSEDSAVYYCVKGGYYGHWYFDVWGAGTTVTVSSATTTAPSVYPLVP VL: DIQMTQSPSSLSASLGERVSLTCRASQDIGSSLNWLQQGPDGTIKRLIYATSSLDSGVPKRFSGSRSGSDYSLTISSLESEDFVDYYCLQYVSSPPTFGAGTKLELKRADAAPTVFIFGRIP",decrease in viral titer,RSV long strain,2 log10
same,mice with long-term complete remissions,[1]; MBA-MD-231 tumors,30%
same,"reduction in microvascular density, treated vs. untreated mice",[1]; histological examination,70%
same,growth retardation,[1]; orthotopic MDA-MB-231,50%
same,Volume of distribution,[2],0.1 L/kg
same,half-life in the α-phase of clearance,[2],3 h
same,half-life in the β-phase of clearance,[2],120 h
same,"binding to heparin, heparan sulfate or double or single stranded DNA",[3],does not bind detectably
same,increase in phagocytosis of PS-positive cells by macrophages,[4],more than three fold
same,inhibitory effect on growth of bEnd.3 cells,bEnd.3 cells,particularly effective
same,decrease in viral titer,human CMV AD169 [5]; addition delayed to 48 hours,2 log10
same,decrease in viral titer,human CMV AD169 [5]; addition up to 24 hours after infection,5-6 log10
same,decrease in viral titer as compared to GV39G-treatment,"human CMV AD169 [5]; m.o.i. 0.01 pfu/cell, 50 μg/ml",3.5 log10
same,decrease in viral titer as compared to GV39G-treated cells,human CMV AD169 [5]; [11],6 log10
same,inhibition of viral replication,human CMV AD169 [5]; [11],approximately 99.9999%
same,inhibition of viral replication compared to GV39G,"human CMV AD169 [5]; m.o.i. 3, 50 μg/ml",3 logs
same,decrease in viral titer as compared to GV39G-treated cells,"human CMV AD169 [5]; m.o.i. 3, 100 μg/ml",5 log10
same,blood cell counts,Toxicity of 3G4 in mice; [12],no changes in blood cell counts
same,bodyweight,Toxicity of 3G4 in mice; [12],gained weight at the same rate as BBG3 treated mice
same,toxicity,Toxicity of 3G4 in mice; 1 mg purified 3G4 intraperitoneally,no toxicity was observed
same,toxicity,"Toxicity of 3G4 in mice; more than 200 mice, 0.1 mg three times a week for 2-3 weeks",no instance of toxicity has been observed
same,survival,mCMV RVG102,100%
same,binding to anionic phospholipids in the presence of 5 mM EDTA,[6],unaffected by the presence of 5 mM EDTA
same,entry of the virus into the cells,"human CMV AD169 [7]; day 3, 50 and 100 μg/ml",does not appear to significantly inhibit the entry of the virus
same,spread of CMV from the original infected cell,"human CMV AD169 [7]; day 9, 100 and 50 μg/ml",restricted to the original singly-infected cell
same,inhibition of Tissue Factor (TF)-induced coagulation,[8],weak inhibition
same,growth retardation,[9],65%
same,toxicity in treated tumor-bearing mice,various tumors; 100 μg i.p. 3 times a week,No toxicity was observed
same,localization after intravenous injection,various tumors; mice bearing various tumors,"specifically and consistently localized to the tumor, but not to normal organs"
same,binding to PS adsorbed to ELISA plates in the presence of liposomes,[10],"blocked by liposomes prepared from PS, PA, PI, PG and CL"
same,infected cells,Pichinde virus,about one in about a hundred cells
